Drawing on US20040043468A1, this text covers Photinus luciferase activity from the monocistronic PM construct in B104 cells, as a percentage of the activity with a control expression plasmid and Photinus luciferase activity from the β-globin 5′ UTR monocistronic construct in B104 cells, as a percentage of the activity with a control expression plasmid for 1 substance.

This assay concerns the target eIF4E. Nature of the assay: cell-based or functional assay.

As to “dominant negative form of the eIF4E binding protein 4E-BP1 (from UniProt Q13541 1-118)”, the Photinus luciferase activity from the monocistronic PM construct in B104 cells, as a percentage of the activity with a control expression plasmid is 45 % of control and the Photinus luciferase activity from the β-globin 5′ UTR monocistronic construct in B104 cells, as a percentage of the activity with a control expression plasmid was 43 % of control.
